The series can be described thus: tunicamycin then surface biotinylation (Fig. S1). As to conditions: glycan lost; control: vehicle (DMSO).

B1: CD98 (SLC3A2, 4F2hc): tunicamycin (protein)
parent chain: MELQPPEASIAVVSIPRQLPGSHSEAGVQGLSAGDDSELGSHCVAQTGLELLASGDPLPSASQNAEMIETGSDCVTQAGLQLLASSDPPALASKNAEVTGTMSQDTEVDMKEVELNELEPEKQPMNAASGAAMSLAGAEKNGLVKIKVAEDEAEAAAAAKFTGLSKEELLKVAGSPGWVRTRWALLLLFWLGWLGMLAGAVVIIVRAPRCRELPAQKWWHTGALYRIGDLQAFQGHGAGNLAGLKGRLDYLSSLKVKGLVLGPIHKNQKDDVAQTDLLQIDPNFGSKEDFDSLLQSAKKKSIRVILDLTPNYRGENSWFSTQVDTVATKVKDALEFWLQAGVDGFQVRDIENLKDASSFLAEWQNITKGFSEDRLLIAGTNSSDLQQILSLLESNKDLLLTSSYLSDSGSTGEHTKSLVTQYLNATGNRWCSWSLSQARLLTSFLPAQLLRLYQLMLFTLPGTPVFSYGDEIGLDAAALPGQPMEAPVMLWDESSFPDIPGAVSANMTVKGQSEDPGSLLSLFRRLSDQRSKERSLLHGDFHAFSAGPGLFSYIRHWDQNERFLVVLNFGDVGLSAGLQASDLPASASLPAKADLLLSTQPGREEGSPLELERLKLEPHEGLLLRFPYAA
As to B1, the localisation_or_trafficking result is on record as “decreases”.

Source of the values: article PMC9418156.
